Consider 61 sequences from the supplement of paper PMC7877785.

± gives the uncertainty stated by the source.

This data set is described as follows: self-splicing fitness, log relative to wild type (ln ratio); higher = more splicing; Tetrahymena group I intron in knt gene, E. coli kanamycin selection, DiMSum; sequences stand for … in CUCUCU…GGAGGGAAAAGUUAUCAGGCAUGCACCUGGUAGCUAGUCUUUAAACCAAUAGAUUGCAUCGGUUUAAAAGGCAAGACCGUCAAAUUGCGGGAAAGGGGUCAACAGCCGUUCAGUACCAAGUCUCAGGGGAAACUUUGAGAUGGCCUUGCAAAGGGUAUGGUAAUAAGCUGACGGACAUGGUCCUAACCACGCAGCCAAGUCCUAAGUCAACAGAUCUUCUGUUGAUAUGGAUGCAGUUCACAGACUAAAUGUCGGUCGGGGAAGAUGUAUUCUUCUCAUAAGAUAUAGUCGGACCUCUCCUUAAUGGGAGCUAGCGGAUGAAGUGAUGCAACACUGGAGCCGCUGGGAACUAAUUUGUAUGCGAAAGUAUAUUGAUUAGUUUUGGAGUACUCGUGGUCG
The method in brief: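 Pooled colonies went to amplicon sequencing on an Illumina HiSeq 2500 after six replicate transformations. The plates were LB agar with 100 μg/mL carbenicillin, 50 μM IPTG and 0.2% rhamnose, with or without 25 μg/mL kanamycin, incubated overnight at 37°C or 30°C. The E. coli BL21(DE3) library had all eight P1ex-region intron nucleotides randomised, the intron placed in the knt kanamycin-resistance gene on pET-22b(+). DiMSum fitness is the error-weighted combination of replicate fold changes, kanamycin against none, normalised to wild type.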

Turning to UCGUAGCAAUAUUACGUCGC, the “self-splicing fitness (ln)” value (37 °C) is -1.37 ± 0.41.
Regarding UGAGAGCAAUAUUACGUCUG, the “self-splicing fitness (ln)” value is, setting by setting: (30 °C) -2.76 ± 0.42; (37 °C) -1.88 ± 0.33.
Consider GAUAAGCAAUAUUACGCUAG, for which the “self-splicing fitness (ln)” value by setting is: (30 °C) -2.45 ± 0.15; (37 °C) 0.0994 ± 0.13.
On to UCGCAGCAAUAUUACGUCCA, for which the “self-splicing fitness (ln)” value by setting is: (30 °C) -0.754 ± 0.086; (37 °C) -0.0511 ± 0.094.
The matching figures for CUAGAGCAAUAUUACGGUUG: -0.207 ± 0.056 and -0.329 ± 0.074.
With GCGAAGCAAUAUUACGGCAA, the “self-splicing fitness (ln)” value is, setting by setting: (30 °C) -0.999 ± 0.16; (37 °C) -0.804 ± 0.16.
As to GCAUAGCAAUAUUACGCGGU, the “self-splicing fitness (ln)” value is, setting by setting: (30 °C) -3.29 ± 0.16; (37 °C) -1.77 ± 0.16.
The matching figures for CAGUAGCAAUAUUACGCUUC: -3.45 ± 0.3 and -2.74 ± 0.28.
On to ACUGAGCAAUAUUACGGUCA, for which the “self-splicing fitness (ln)” value runs as follows: (30 °C) -3.09 ± 0.21; (37 °C) -1.51 ± 0.15.
Take GGUCAGCAAUAUUACGAUUU: the “self-splicing fitness (ln)” value reads like this: (30 °C) 0.377 ± 0.062; (37 °C) 0.21 ± 0.088.
The corresponding values for UACCAGCAAUAUUACGCUCG are -0.415 ± 0.093 and -0.203 ± 0.11.
The corresponding values for AGCCAGCAAUAUUACGCACU are -0.425 ± 0.094 and -0.259 ± 0.12.
As for UCUAAGCAAUAUUACGGUGA, the “self-splicing fitness (ln)” value is -0.587 ± 0.099 (30 °C) and -0.245 ± 0.1 (37 °C).
On to CCGCAGCAAUAUUACGGGUU, for which the “self-splicing fitness (ln)” value (30 °C) is -3.79 ± 0.11 and the “self-splicing fitness (ln)” value (37 °C) was -2.74 ± 0.11.
Regarding CGAAAGCAAUAUUACGCAGA, the “self-splicing fitness (ln)” value (30 °C) is -4.25 ± 0.42 and the “self-splicing fitness (ln)” value (37 °C) is -0.12 ± 0.17.
Take UAGAAGCAAUAUUACGGUUA: the “self-splicing fitness (ln)” value was 0.144 ± 0.094 (30 °C) and -0.007 ± 0.086 (37 °C).
Take AUUCAGCAAUAUUACGCUUC: the “self-splicing fitness (ln)” value (30 °C) is -2.28 ± 0.15 and the “self-splicing fitness (ln)” value (37 °C) is -1.76 ± 0.18.
As to GAAGAGCAAUAUUACGGAUU, the “self-splicing fitness (ln)” value is, setting by setting: (30 °C) -2.29 ± 0.15; (37 °C) -1.79 ± 0.19.
Turning to UGACAGCAAUAUUACGUUAA, the “self-splicing fitness (ln)” value (30 °C) was -0.645 ± 0.1 and the “self-splicing fitness (ln)” value (37 °C) was -1.16 ± 0.09.
As to CUGCAGCAAUAUUACGCGUU, the “self-splicing fitness (ln)” value is, setting by setting: (30 °C) -3.32 ± 0.12; (37 °C) -2.1 ± 0.16.
For the sequence UCUGAGCAAUAUUACGUCGC, the “self-splicing fitness (ln)” value is -4.03 ± 0.37 (30 °C) and -2.54 ± 0.36 (37 °C).
Turning to GUGGAGCAAUAUUACGCAAU, the “self-splicing fitness (ln)” value was -1.83 ± 0.1 (30 °C) and -1.25 ± 0.13 (37 °C).
Regarding CGUAAGCAAUAUUACGUAAA, the “self-splicing fitness (ln)” value is -3.15 ± 0.24 (30 °C) and -2.1 ± 0.22 (37 °C).
For the sequence CCUAAGCAAUAUUACGGUCG, the “self-splicing fitness (ln)” value reads like this: (30 °C) -0.889 ± 0.065; (37 °C) -0.252 ± 0.086.
For the sequence UGCAAGCAAUAUUACGAAGC, where the note is “37 °C”, the “self-splicing fitness (ln)” value is -1.87 ± 0.4.
Regarding AGUGAGCAAUAUUACGCCGC, the “self-splicing fitness (ln)” value (30 °C) was -1.96 ± 0.25 and the “self-splicing fitness (ln)” value (37 °C) was -0.183 ± 0.22.
With UCUCAGCAAUAUUACGGUAG, the “self-splicing fitness (ln)” value is -2.3 ± 0.098 (30 °C) and -1.99 ± 0.15 (37 °C).
In the case of GAAUAGCAAUAUUACGCGCG, the “self-splicing fitness (ln)” value by setting is: (30 °C) -0.825 ± 0.1; (37 °C) -0.591 ± 0.13.
In the case of CCAAAGCAAUAUUACGUCAG, the “self-splicing fitness (ln)” value reads like this: (30 °C) -1.64 ± 0.065; (37 °C) -0.149 ± 0.08.
UAUAAGCAAUAUUACGGCCA: the “self-splicing fitness (ln)” value is -0.385 ± 0.15 (30 °C) and 0.169 ± 0.22 (37 °C).
On to CUGGAGCAAUAUUACGGGGC, for which the “self-splicing fitness (ln)” value (30 °C) is -4.12 ± 0.46 and the “self-splicing fitness (ln)” value (37 °C) was -2.29 ± 0.46.
Take AUCCAGCAAUAUUACGCCGC: the “self-splicing fitness (ln)” value (30 °C) was -4.25 ± 0.46 and the “self-splicing fitness (ln)” value (37 °C) is -2.58 ± 0.38.
On to CCAAAGCAAUAUUACGUCAU, for which the “self-splicing fitness (ln)” value reads like this: (30 °C) -3.8 ± 0.2; (37 °C) -2.87 ± 0.22.
Take ACGGAGCAAUAUUACGUACG: the “self-splicing fitness (ln)” value (30 °C) was -2.38 ± 0.45.
Turning to UGAGAGCAAUAUUACGUUCA, the “self-splicing fitness (ln)” value is -0.924 ± 0.12 (30 °C) and -0.794 ± 0.12 (37 °C).
On to AGAAAGCAAUAUUACGAGUC, for which the “self-splicing fitness (ln)” value by setting is: (30 °C) -3.82 ± 0.33; (37 °C) -1.57 ± 0.18.
The matching figures for GAUAAGCAAUAUUACGCAUC: -3.06 ± 0.23 and -1.21 ± 0.35.
For AGUGAGCAAUAUUACGGCAG, the “self-splicing fitness (ln)” value reads like this: (30 °C) -3.28 ± 0.28; (37 °C) -1.43 ± 0.24.
UCAAAGCAAUAUUACGCAUA: the “self-splicing fitness (ln)” value is, setting by setting: (30 °C) -2.68 ± 0.17; (37 °C) -1.62 ± 0.16.
The matching figures for CGAGAGCAAUAUUACGAAUG: -2.96 ± 0.2 and -2.03 ± 0.21.
As for AUAGAGCAAUAUUACGCAUC, the “self-splicing fitness (ln)” value is -3.91 ± 0.31 (30 °C) and -2.11 ± 0.25 (37 °C).
The corresponding values for GCGAAGCAAUAUUACGACCU are -0.269 ± 0.073 and -0.573 ± 0.086.
For the sequence GAGGAGCAAUAUUACGUACU, the “self-splicing fitness (ln)” value is, setting by setting: (30 °C) -2.16 ± 0.16; (37 °C) -0.205 ± 0.19.
On to CACUAGCAAUAUUACGUUAA, for which the “self-splicing fitness (ln)” value was -2.77 ± 0.2 (30 °C) and -2.11 ± 0.23 (37 °C).
Take CGACAGCAAUAUUACGUAAU: the “self-splicing fitness (ln)” value (30 °C) is -3.73 ± 0.16 and the “self-splicing fitness (ln)” value (37 °C) was -2.34 ± 0.15.
The corresponding values for AUUGAGCAAUAUUACGUAGA are -2.86 ± 0.26 and -2.38 ± 0.42.
For the sequence AUCGAGCAAUAUUACGAACC, the “self-splicing fitness (ln)” value is, setting by setting: (30 °C) -0.925 ± 0.36; (37 °C) -0.838 ± 0.4.
For GAAGAGCAAUAUUACGCCAA, where the note is “37 °C”, the “self-splicing fitness (ln)” value was -2.54 ± 0.45.
As to CGCUAGCAAUAUUACGGAAU, the “self-splicing fitness (ln)” value is, setting by setting: (30 °C) -3.52 ± 0.28; (37 °C) -2.02 ± 0.26.
The matching figures for CACUAGCAAUAUUACGCGGU: -4.59 ± 0.26 and -3.62 ± 0.28.
With ACGUAGCAAUAUUACGAUUU, the “self-splicing fitness (ln)” value (30 °C) was 0.256 ± 0.059 and the “self-splicing fitness (ln)” value (37 °C) was -0.149 ± 0.073.
On to UCUGAGCAAUAUUACGUACC, for which the “self-splicing fitness (ln)” value (30 °C) was -3.19 ± 0.41 and the “self-splicing fitness (ln)” value (37 °C) is -1.96 ± 0.31.
As for GCGUAGCAAUAUUACGUGCG, the “self-splicing fitness (ln)” value was -4.01 ± 0.17 (30 °C) and -1.62 ± 0.14 (37 °C).
Take AAUGAGCAAUAUUACGGACG: the “self-splicing fitness (ln)” value (30 °C) was -2.44 ± 0.2.
Regarding GUGAAGCAAUAUUACGAGGC, the “self-splicing fitness (ln)” value reads like this: (30 °C) -2.59 ± 0.25; (37 °C) -1.1 ± 0.22.
As for AAUCAGCAAUAUUACGAGUU, the “self-splicing fitness (ln)” value by setting is: (30 °C) -0.331 ± 0.049; (37 °C) 0.000416 ± 0.074.
For the sequence GGGGAGCAAUAUUACGUUCU, the “self-splicing fitness (ln)” value runs as follows: (30 °C) -2.67 ± 0.43; (37 °C) -0.226 ± 0.35.
Consider CGACAGCAAUAUUACGUCAC, for which the “self-splicing fitness (ln)” value (30 °C) was -3.14 ± 0.14 and the “self-splicing fitness (ln)” value (37 °C) is -2.19 ± 0.16.
For the sequence GACUAGCAAUAUUACGGUGA, the “self-splicing fitness (ln)” value (30 °C) is -1.07 ± 0.11 and the “self-splicing fitness (ln)” value (37 °C) was -0.694 ± 0.097.
For ACAUAGCAAUAUUACGUUGA, the “self-splicing fitness (ln)” value is, setting by setting: (30 °C) -2.56 ± 0.17; (37 °C) -1.66 ± 0.14.
Regarding UUGCAGCAAUAUUACGCGAU, the “self-splicing fitness (ln)” value reads like this: (30 °C) -2.02 ± 0.29; (37 °C) -2.6 ± 0.36.
